In patent US20150196637A1:
Where two headings read alike, the source gives them in different places.

Columns and labels:
[1] = target: IgG1 heavy chain with CH3 construct 2 (K392D, K409D) and common light chain (human) [IgG part: P01857]; assay: native MS, transfection #11 of Table 24; fibrinogen VH on construct 1 with fibrinogen VH on construct 2
[2] = target: IgG1 heavy chain with CH3 construct 2 (K392D, K409D) and common light chain (human) [IgG part: P01857]
[3] = target: IgG1 heavy chain with CH3 construct 8 (Q347K) and common light chain (human) [IgG part: P01857]
[4] = target: IgG1 heavy chain with CH3 construct 67 (K360D) and common light chain (human) [IgG part: P01857]
[5] = target: IgG1 heavy chain with CH3 construct 61 (L351K) and common light chain (human) [IgG part: P01857]
[6] = target: IgG1 heavy chain with CH3 construct 64 (T366D) and common light chain (human) [IgG part: P01857]

Work on “IgG1 heavy chain with CH3 construct 1 (E356K, D399K) and common light chain (from UniProt P01857-1)” yielded a % of the mixture (peak height) [1] of 61% and a % of the mixture (peak height) [2] of 67%.
For “IgG1 heavy chain with CH3 construct 8 (Q347K) and common light chain (from UniProt P01857-1)”, the AA found (%) [3] was 34% and the AC found (%) [4] was 41%.
For “IgG1 heavy chain with CH3 construct 61 (L351K) and common light chain (from UniProt P01857-1)”, the AA found (%) [5] was 30% and the AC found (%) [6] was 52%.
